Results: PMC5716193

Key:
[1] = target: Opbp[1–174] fragment after deletion of TRX (Drosophila); experiment: cross-linking
[2] = target: Thioredoxin-tagged Opbp[114–174] (Drosophila); experiment: cross-linking

Row | Substance | stoichiometry N [1] | stoichiometry N [2]
1 | Opbp[1–174] fragment after deletion of TRX (domain or fragment) | 2 | –
2 | Thioredoxin-tagged Opbp[114–174] (domain or fragment) | – | 2
